Measured values reported in patent US12186374B2 (Sanofi-Aventis Deutschland GmbH, priority 2014, dated 2025).

Tested on: patients with T2DM
Assay: Patient disposition / treatment discontinuation (Example 3)
Type: in vivo
Details: Randomized population; percentages of patients randomized
Text: The discrepancy between the strata assigned by IVRS/IWRS and the information reported on electronic Case Report Form (eCRF) will be listed for all randomized patients, • Patients who have completed the 30-week treatment period, • Patients who discontinued the IMP during the 30-week treatment period, and the reasons for treatment discontinuation.

With “Gly(A21)-Arg(B31)-Arg(B32)-human insulin [Insulin Glargine]” the “Reason for study treatment discontinuation: Adverse event” value was 3 (0.8%) and the “Status at last study contact: Dead” value was 2 (0.5%).
